According to the Immune Epitope Database (IEDB):

What was measured:
Experiment in all cases: IEDB peptide-MHC binding, purified MHC/competitive/radioactivity; ≥ and ≤ were set here for values at or beyond the usual limits of such assays
Conditions in all cases: source organism: Homo sapiens
HLA-A*30:01 = molecular target: HLA-A*30:01
HLA-A*31:01 = molecular target: HLA-A*31:01
HLA-A*68:01 = molecular target: HLA-A*68:01
HLA-A*03:01 = molecular target: HLA-A*03:01
HLA-A*33:01 = molecular target: HLA-A*33:01
HLA-A*11:01 = molecular target: HLA-A*11:01

| IC50 (HLA-A*30:01) | IC50 (HLA-A*31:01) | IC50 (HLA-A*68:01) | IC50 (HLA-A*03:01) | IC50 (HLA-A*33:01) | IC50 (HLA-A*11:01) | Sequence |
| --- | --- | --- | --- | --- | --- | --- |
| ≥ 70000 nM | ≥ 70000 nM | 10 nM | 1070 nM | 60 nM | 63 nM | EVYEGVWKK |
| 10100 nM | 9870 nM | 4200 nM | 2280 nM | 63600 nM | 2280 nM | KLGGGQYGE |
